# Measurements: paper PMC11381335, “Unraveling the structure and function of a novel SegC protein interacting with the SegAB chromosome segregation complex in Archaea” (Nucleic Acids Research, 2024)
# B1: 21-bp site 1 (S1) dsDNA (dsDNA)
# DNA 1: ACGTAGAAGAGTCTAGACTGA
# DNA 2: CAGTCTAGACTCTTCTACGTA
# Target: T1, SegC1-155 (UniProt Q981B4 1-155, del156-165)
# T1 sequence: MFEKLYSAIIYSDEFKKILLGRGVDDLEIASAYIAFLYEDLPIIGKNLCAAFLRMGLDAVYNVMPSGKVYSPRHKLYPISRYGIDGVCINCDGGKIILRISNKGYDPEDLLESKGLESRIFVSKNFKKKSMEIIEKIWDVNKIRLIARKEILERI
# Test: fluorescence polarization; FP: 20 mM Tris-HCl pH 7.5, 100 mM NaCl, 2 mM MgCl2, 5 nM Cy3-DNA, room temperature; EMSA: same buffer, 10 nM Cy3-DNA, 37 C 30 min, 4-12% TBE gel
# Conditions: protein: recombinant; tags: C-terminal His6; label: 5' Cy3; 20 bp paired with 3' overhang 1 nt at each end (from printed strands)
binder,measurement,value
B1,binding result,no binding
